{"source": "paper PMC8965865", "key": {"[1]": {"target": "T1, Fur (Mycobacterium smegmatis mc2155) (UniProt A0QXX6)", "T1 sequence": "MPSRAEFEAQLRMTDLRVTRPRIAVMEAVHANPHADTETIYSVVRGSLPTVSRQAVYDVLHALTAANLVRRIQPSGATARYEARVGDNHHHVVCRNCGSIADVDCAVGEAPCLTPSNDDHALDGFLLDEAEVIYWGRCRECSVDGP", "experiment": "EMSA", "conditions": "20 mM Tris HCl pH 8.0, 1 mM DTT, 50 mM KCl, 5 mM MgCl2, 20 ul, 30 min at 30 C"}, "[2]": {"target": "T2, mFur (A28V Fur) A28V (Mycobacterium smegmatis mc251) (UniProt A0QXX6)", "T2 sequence": "T1 sequence with A28V", "experiment": "EMSA", "conditions": "20 mM Tris HCl pH 8.0, 1 mM DTT, 50 mM KCl, 5 mM MgCl2, 20 ul, 30 min at 30 C"}}, "note": "Substitutions are numbered along the chain they refer to."}
{"sequence": "CATCCGCAGTTGGGCTTCGAACTCCGCCCGAGAGGGCATGCCGCCCACCTTGCTCGCCCGATTGGACGCAGTCAAGTCTTTCTCGAATTCGGTATGTCGGTGCATGTCTCGCTCCGATCTGGGAGCTCGGATGGGAGGCGCAAGAGCGAGCCGCGTTCGGCCATTGTCGGCCGACCGCTTCTGCGCGCAGGCTTGCTGCGGCGGTTACCCCGATGTGCCCGACGCTATACCTCCAGCCGAAGAAATTTCTTGCAATGGTTGTTTTCCAACG (double strand) [fur promoter DNA fragment]", "values": [{"measurement": "binding", "setting": "[1]", "result": "binds"}, {"measurement": "binding", "setting": "[2]", "result": "binds more weakly"}]}
